Assay results reported in patent US20210171613A1.

Target: Clostridium difficile toxin A (TcdA) (Clostridium difficile), P16154
Experiment: SPR (Biacore 3000), VHH over immobilized TcdA, 1:1 fit
Conditions: remark: other sources report otherwise

Sequence of Clostridium difficile toxin A (TcdA) (Clostridium difficile), P16154 (P16154 whole entry): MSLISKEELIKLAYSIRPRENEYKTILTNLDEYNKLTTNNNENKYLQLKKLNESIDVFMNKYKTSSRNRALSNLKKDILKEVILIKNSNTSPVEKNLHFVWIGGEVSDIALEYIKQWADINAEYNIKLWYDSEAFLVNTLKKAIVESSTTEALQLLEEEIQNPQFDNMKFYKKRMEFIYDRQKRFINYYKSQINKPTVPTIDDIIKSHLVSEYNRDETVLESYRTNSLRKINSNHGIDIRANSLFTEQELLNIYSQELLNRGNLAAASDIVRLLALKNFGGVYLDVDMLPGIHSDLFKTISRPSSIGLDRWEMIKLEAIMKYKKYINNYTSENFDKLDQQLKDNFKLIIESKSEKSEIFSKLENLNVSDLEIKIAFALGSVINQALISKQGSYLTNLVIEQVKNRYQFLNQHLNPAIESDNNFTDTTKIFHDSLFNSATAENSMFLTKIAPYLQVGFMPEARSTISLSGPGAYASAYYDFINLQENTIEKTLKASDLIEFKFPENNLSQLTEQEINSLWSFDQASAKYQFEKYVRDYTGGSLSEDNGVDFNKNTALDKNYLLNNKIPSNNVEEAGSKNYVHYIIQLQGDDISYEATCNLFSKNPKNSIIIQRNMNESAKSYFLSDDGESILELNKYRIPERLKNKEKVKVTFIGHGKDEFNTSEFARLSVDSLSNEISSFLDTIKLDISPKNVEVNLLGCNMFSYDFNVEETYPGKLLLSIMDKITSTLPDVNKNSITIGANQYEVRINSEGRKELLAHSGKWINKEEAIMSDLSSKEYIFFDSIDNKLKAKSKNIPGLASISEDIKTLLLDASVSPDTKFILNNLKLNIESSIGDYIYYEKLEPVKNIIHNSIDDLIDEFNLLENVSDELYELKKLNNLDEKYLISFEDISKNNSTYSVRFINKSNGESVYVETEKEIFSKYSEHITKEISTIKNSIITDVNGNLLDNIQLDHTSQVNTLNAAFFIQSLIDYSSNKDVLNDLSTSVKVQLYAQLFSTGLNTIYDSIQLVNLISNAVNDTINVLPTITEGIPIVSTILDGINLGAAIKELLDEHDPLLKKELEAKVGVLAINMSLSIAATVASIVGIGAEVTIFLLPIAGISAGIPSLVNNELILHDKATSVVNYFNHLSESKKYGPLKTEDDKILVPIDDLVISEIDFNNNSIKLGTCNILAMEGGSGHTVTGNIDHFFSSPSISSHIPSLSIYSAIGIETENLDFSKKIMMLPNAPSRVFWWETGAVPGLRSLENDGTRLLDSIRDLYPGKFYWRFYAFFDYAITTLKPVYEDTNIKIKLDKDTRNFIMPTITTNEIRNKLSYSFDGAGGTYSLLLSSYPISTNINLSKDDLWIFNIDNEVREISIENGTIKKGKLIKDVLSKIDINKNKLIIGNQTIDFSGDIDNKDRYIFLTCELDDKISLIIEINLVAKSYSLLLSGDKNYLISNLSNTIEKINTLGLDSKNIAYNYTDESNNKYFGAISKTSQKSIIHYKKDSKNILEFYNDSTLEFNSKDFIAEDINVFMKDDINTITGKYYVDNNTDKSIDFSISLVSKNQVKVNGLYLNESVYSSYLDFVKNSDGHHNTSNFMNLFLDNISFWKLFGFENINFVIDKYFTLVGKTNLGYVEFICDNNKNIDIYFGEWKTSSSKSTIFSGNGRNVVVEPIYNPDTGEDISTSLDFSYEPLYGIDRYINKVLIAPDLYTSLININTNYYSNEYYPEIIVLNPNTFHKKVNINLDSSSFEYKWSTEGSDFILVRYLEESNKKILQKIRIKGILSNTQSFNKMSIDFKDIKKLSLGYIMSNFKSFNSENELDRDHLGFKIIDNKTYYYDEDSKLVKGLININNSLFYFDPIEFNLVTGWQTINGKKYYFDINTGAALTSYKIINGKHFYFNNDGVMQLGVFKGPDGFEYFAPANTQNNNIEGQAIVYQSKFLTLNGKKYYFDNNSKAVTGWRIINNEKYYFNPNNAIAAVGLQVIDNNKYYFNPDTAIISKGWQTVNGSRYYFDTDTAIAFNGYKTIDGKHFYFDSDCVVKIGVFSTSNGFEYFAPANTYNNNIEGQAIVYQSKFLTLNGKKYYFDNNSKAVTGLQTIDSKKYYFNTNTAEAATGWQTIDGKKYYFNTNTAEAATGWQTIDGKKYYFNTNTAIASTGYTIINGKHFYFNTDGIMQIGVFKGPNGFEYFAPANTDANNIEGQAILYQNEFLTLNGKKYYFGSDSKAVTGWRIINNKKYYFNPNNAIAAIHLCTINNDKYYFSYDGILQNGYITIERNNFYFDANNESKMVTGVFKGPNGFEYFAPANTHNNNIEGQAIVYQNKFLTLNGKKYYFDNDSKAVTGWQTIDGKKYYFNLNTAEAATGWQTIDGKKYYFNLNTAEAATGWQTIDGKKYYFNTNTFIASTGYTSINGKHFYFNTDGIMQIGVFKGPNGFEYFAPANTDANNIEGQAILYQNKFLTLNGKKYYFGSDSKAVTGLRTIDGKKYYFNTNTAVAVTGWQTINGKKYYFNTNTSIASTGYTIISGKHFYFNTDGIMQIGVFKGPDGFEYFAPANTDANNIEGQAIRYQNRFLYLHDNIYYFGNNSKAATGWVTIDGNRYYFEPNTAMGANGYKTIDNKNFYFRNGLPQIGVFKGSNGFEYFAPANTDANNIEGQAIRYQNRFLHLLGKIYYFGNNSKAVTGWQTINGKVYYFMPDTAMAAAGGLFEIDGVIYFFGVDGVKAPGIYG

B1: Parent A26.8 VHH (VHH, not shown: small tags and cut ends)
VHH: QVKLEESGGGLVQAGGSLRLSCAASERTFSRYPVAWFRQAPGAEREFVAVISSTGTSTYYADSVKGRFTISRDNAKVTVYLQMNNLKREDTAVYFCAVNSQRTRLQDPNEYDYWGQGTQVTVSS
Kd: 18.7 nM
